According to the supplement of paper PMC10724198:
± gives the standard deviation of the averaged measurements.

Tested on: Saccharomyces cerevisiae
Assay: protein stability index of tFT-peptide fusion (C-terminal peptide) (PSI (0-1 scale)); higher = more stable (slower turnover)
Details: genetic background: wild type; temperature: 37 C
Protocol: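 MPS profiling in S. cerevisiae of the tFT-X12 degron library: putative degron peptides plus stable controls, 12 aa, fused to the C-terminus of a sfGFP-mCherry timer. Cells are FACS-sorted into 8 mCherry/sfGFP bins and deep-sequenced. PSI runs from 0 (unstable) to 1 (stable). Backgrounds are wild type, das1Δ and doa10Δ at 30 °C, and wild type, das1Δ, cdc34-1 and cdc53-1 at 37 °C; 2-3 technical replicates each.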
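Note: PSI is a weighted mean of sequencing reads over stability bins, variants kept only with over 10 reads, mCherry proximal and sfGFP distal, peptide attached via GGGS linker.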

Sequence | protein stability index
PPTHDSPVWSPS | 0.7217 ± 0.0029
PPVAYVCHLYVT | 0.503 ± 0.013
PPVLAPHLCFPP | 0.713 ± 0.019
PRTTHTPLLIAS | 0.296 ± 0.046
PSFLAIRVCLLV | 0.0987 ± 0.036
PSPRLSLPPRLP | 0.6948 ± 0.002
PSPRRPPRSRFP | 0.701 ± 0.017
PSPYSLSPYFLV | 0.4902 ± 0.0013
PSRLSFALLFHL | 0.545 ± 0.0058
PTAGFFGLLVLV | 0.4087 ± 0.00047
PVHARYCSLKWA | 0.5159 ± 0.0024
PWGVGLACLFLL | 0.1134 ± 0.00036
PYPSVIFFLHVY | 0.237 ± 0.021
QIGSMLGVQGVG | 0.545 ± 0.027
QILVSYSFLYFF | 0.539 ± 0.0058
QVVWAVPRICLV | 0.505 ± 0.019
QWRSWSFATLVT | 0.409 ± 0.0052
RCRLYLNVVVLC | 0.17 ± 0.0064
RCTFSFSFPFVL | 0.729 ± 0.011
RFCRVERAILLR | 0.41 ± 0.0053
RFFKMREAIRIS | 0.482 ± 0.0067
RFPFFLPFIAFL | 0.39 ± 0.0084
RGCFVLRKTHLL | 0.275 ± 0.0075
RGVRALFLLLSF | 0.45 ± 0.02
RHAHPLTAQLPL | 0.7168 ± 0.0032
RHIPSIILAHVV | 0.296 ± 0.01

Sequence | protein stability index
RICACHGIRFIP | 0.617 ± 0.016
RIFWMFFSQHIG | 0.288 ± 0.017
RLCLLLCCRLWL | 0.55 ± 0.01
RLFVRIQLSLLF | 0.3506 ± 0.00077
RLICFFSMYLRF | 0.369 ± 0.022
RLLFFVFLSSRF | 0.4212 ± 0.0027
RLRCRVLQWVWG | 0.571 ± 0.0062
RLSTTTTKQFIH | 0.58 ± 0.011
RMTFFGFTVKML | 0.537 ± 0.01
RNFSFTVICLAM | 0.514 ± 0.019
RPCRPLIAAFVF | 0.529 ± 0.0077
RQILYYRERFIP | 0.355 ± 0.017
RRIKNRRLKQVT | 0.472 ± 0.036
RRQLVLVLSWVI | 0.506 ± 0.067
RRQQNHRQLCAT | 0.518 ± 0.038
RRRNQAAHLYSH | 0.348 ± 0.011
RSFGGRPWVLFL | 0.255 ± 0.019
RTRVRKTRIRTC | 0.517 ± 0.011
RVFLVLFLILSG | 0.425 ± 0.0055
RVIRHLRRISNF | 0.307 ± 0.034
RVLSLLGCFVVF | 0.558 ± 0.026
RVLVEIVYFKVF | 0.055 ± 0.00095
RVRNSQVVAVVG | 0.548 ± 0.022
RVTEYHTKYKIV | 0.0807 ± 0.021
RWAAAVPLLVVG | 0.0908 ± 0.0062
RWRYHAYVITIL | 0.0987 ± 0.0088

Sequence | protein stability index
RYKIEKKKLMNN | 0.448 ± 0.048
SEVMVGLRLTLN | 0.545 ± 0.029
SFRIWLFRFFFV | 0.541 ± 0.032
SFSFCCLLASFV | 0.603 ± 0.013
SFSIPILLLAFP | 0.3719 ± 0.0017
SFYAGLVVGGVG | 0.5813 ± 0.0037
SGLVAFSVCCRG | 0.4862 ± 0.0037
SGLVHVLILGAC | 0.506 ± 0.011
SGRGFSFVLCTV | 0.58 ± 0.015
SGRKNQRILGLY | 0.497 ± 0.011
SLAPPPPLLILR | 0.4471 ± 0.0029
SLARPGLCFVIA | 0.543 ± 0.029
SLASPPPLLILR | 0.434 ± 0.01
SLFFCIPIHSVF | 0.524 ± 0.013
SLIVLRSIAVLD | 0.518 ± 0.013
SLRYRFLSFFFL | 0.338 ± 0.023
SLSFLRPLLLIF | 0.0953 ± 0.019
SLTNYQRLIHVC | 0.0936 ± 0.0094
SLVLLVASVTGS | 0.553 ± 0.017
SMFFLFFFFFFF | 0.4177 ± 0.0027
SNFQLLPLFKNI | 0.546 ± 0.056
SPRGVVIAFLVC | 0.109 ± 0.0082
SQIALIQYFHIL | 0.202 ± 0.029
SQVILFFLSLCR | 0.61 ± 0.022
SRICRTIIQLKQ | 0.266 ± 0.004
SRLVSRLGLYLS | 0.475 ± 0.03
